{
  "source": "patent US20170327556A1",
  "about": "“CARTILAGE-BINDING FUSION PROTEINS” (Merrimack Pharmaceuticals, Inc., priority 2013, published 2017)",
  "key": {"collagen type II": {"target": "T1, collagen type II (Homo sapiens, UniProt P02458)", "T1 construct": "purchased Chondrex Products, Redmond, Wash", "T1 sequence (P02458 182-1241 limits assumed)": "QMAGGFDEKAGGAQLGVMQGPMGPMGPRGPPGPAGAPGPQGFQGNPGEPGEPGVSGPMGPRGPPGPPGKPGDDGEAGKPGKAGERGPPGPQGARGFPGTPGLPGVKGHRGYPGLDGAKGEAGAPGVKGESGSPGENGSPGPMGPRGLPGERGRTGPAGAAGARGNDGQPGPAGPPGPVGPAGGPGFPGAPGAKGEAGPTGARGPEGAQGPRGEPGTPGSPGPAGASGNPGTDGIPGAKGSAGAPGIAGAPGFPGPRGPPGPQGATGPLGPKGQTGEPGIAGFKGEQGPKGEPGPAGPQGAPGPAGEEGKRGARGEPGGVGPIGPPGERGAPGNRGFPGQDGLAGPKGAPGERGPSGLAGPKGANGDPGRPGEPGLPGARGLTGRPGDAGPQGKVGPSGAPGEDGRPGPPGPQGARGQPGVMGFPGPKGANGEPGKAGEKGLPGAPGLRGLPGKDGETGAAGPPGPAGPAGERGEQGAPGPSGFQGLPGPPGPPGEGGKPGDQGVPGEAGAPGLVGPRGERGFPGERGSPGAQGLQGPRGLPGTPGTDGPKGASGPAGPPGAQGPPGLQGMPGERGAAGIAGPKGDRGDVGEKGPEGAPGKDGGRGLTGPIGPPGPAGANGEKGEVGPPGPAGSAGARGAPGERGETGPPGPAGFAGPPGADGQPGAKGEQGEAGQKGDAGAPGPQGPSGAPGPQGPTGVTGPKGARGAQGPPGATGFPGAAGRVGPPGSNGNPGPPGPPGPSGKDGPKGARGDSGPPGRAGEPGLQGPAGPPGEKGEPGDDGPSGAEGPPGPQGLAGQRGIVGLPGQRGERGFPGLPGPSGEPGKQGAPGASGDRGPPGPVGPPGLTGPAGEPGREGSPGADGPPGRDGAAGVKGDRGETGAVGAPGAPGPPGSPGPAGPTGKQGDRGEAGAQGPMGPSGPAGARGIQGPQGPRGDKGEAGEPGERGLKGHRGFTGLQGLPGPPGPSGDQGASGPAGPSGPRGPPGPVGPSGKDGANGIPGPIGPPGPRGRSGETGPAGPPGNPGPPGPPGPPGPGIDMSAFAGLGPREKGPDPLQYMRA", "test": "ELISA binding of fusion proteins to collagen type II coated plates", "details": "6x-Histidine-tagged proteins, FIG. 2", "method": "Specificity of proteins to collagen type II may be determined by measuring the ability of the protein to bind the collagen coated on an ELISA plate. Reacti-Bind® 96 well plates are coated overnight at 4° C. with 100 μl of collagen type II (Chondrex Products, Redmond, Wash.) with 1× supplied buffer. Plates are washed with PBS, 0.05% Tween-20 (PBST) and blocked for 1 hour at room temperature with 100 μl of Protein-Free Blocking Buffer (Pierce, Thermo Scientific). Plates are then washed with PBST and tapped dry. 50 μL, of protein in a dilution series is added to the wells and incubated for 1 hour at room temperature. The protein dilution series starts from 100 μM and includes ten additional three-fold dilutions in PBS and one blank (PBS). After plates are washed in PBS, 50 μL, of anti-human IGF-1 (Abcam) at 1:250 in PBST is added and plates are incubated for 1 hour rotating at room temperature. The plates are then washed with PBST and 100 μL, of 1:1000 anti-Rabbit-HRP (Cell Signaling Technology) in PBST for 1 hour at room temperature. […] The absorbance is measured at 450 nm and the resulting data is analyzed using GraphPad Prism®.\nThe binding of two anticipated type II collagen binding fusion proteins, GF-Fus5 (6x-Histidine-tagged) and GF-Fus6 (6x-Histidine-tagged) was measured as described above."}, "[1]": {"test": "ELISA binding of fusion proteins to chondroitin sulfate coated plates", "details": "6x-Histidine-tagged proteins, FIG. 1B", "method": "(§1) The specificity of binding of fusion proteins to the polysaccharides heparan sulfate and chondroitin sulfate may be determined by measuring the ability of the proteins to bind polysaccharides coated on an ELISA plate. Heparin Binding Plates (BD Biosciences) are coated with 50 μl of 2-10 μg/mL concentration of heparan sulfate or chondroitin sulfate (Sigma-Aldrich®) and incubated overnight at room temperature. Plates are washed with PBS and blocked with 250 μl of 0.2% gelatin in PBS for 1 hour at 37 C. Plates are then washed with PBS and tapped dry. 50 μl of protein in a dilution series is added to the wells and incubated for 2 hours at 37 C. The protein dilution series starts from 100 nM and includes ten additional three-fold dilutions in PBS, 0.2% gelatin and one blank (PBS, 0.2% gelatin only). After the plates are washed in PBS, 50 μl of anti-human IGF-1 (Abcam) at 1:250 in PBST is added and the plates are incubated for 1 hour rotating at room temperature. Plates are washed with PBST and 100 μl of 1:1000 anti-Rabbit-HRP (Cell Signaling Technology®) in PBST is added to each well and the plate is incubated for 1 hour at room temperature. […] The absorbance is measured at 450 nm and the resulting data is analyzed using GraphPad Prism® (GraphPad Software, San Diego, Calif.). […]"}, "[2]": {"test": "ELISA binding of fusion proteins to heparan sulfate coated plates", "details": "6x-Histidine-tagged proteins, FIG. 1A", "method": "as §1"}, "[3]": {"tested_on": "bovine cartilage explants", "test": "In vitro joint disease model (IL-1), explanted bovine cartilage: ^35S-sulfate incorporation", "format": "cell-based", "details": "4 and 12 day treatments, IL-1, FIG. 16"}, "[4]": {"test": "Stability of GF-Fus3 in human synovial fluid (western blot)", "format": "in vitro ADME", "method": "Synovial fluid was harvested from two human donors (see Table 14) within 24 hours of death, flash frozen and stored at −80° C. 2 μL of GF-Fus3 (0.45 mg/mL in PBS, Life Technologies Cat#10010-031) was added to 18 pt of synovial fluid (final GF-Fus3 concentration is 45 μg/mL) in a sealed 200 μL PCR tube and incubated at 37° C. for 0, 24, 48, 72, or 96 hours. Samples were diluted 1:10 in PBS and 10 μL (45 ng of GF-Fus3) was mixed with 3.3 μL of NuPAGE LDS Sample Buffer (Life Technologies, Cat# NP0007). GF-Fus3 standards were prepared at 100, 200, 400, 800, and 1600 ng/mL and 10 μL of each solution was mixed with 3.3 uL of NuPAGE LDS Sample Buffer. All samples and standards were loaded onto a 4-12% NuPAGE Bis-Tris Gel (Life Technologies, Cat# NP0321BOX), and run in NuPAGE MES SDS Running Buffer (Life Technologies, Cat# NP0002). Protein was transferred to a nitrocellulose membrane using an iBlot kit (Life Technologies, Cat# IB301001). Membrane was blocked in Odyssey Blocking Buffer (LI-COR, Cat#927-40000) for 1 hour at room temperature with agitation. Membrane was washed twice in PBS with 0.05% Tween20 (PBS-T) and incubated in 2 μg/mL anti-IGF-1 antibody (Millipore, Cat#05-172) overnight at 4° C. Membrane was washed three times in PBS-T and incubated with IRDye 800CW goat anti-mouse antibody (LI-COR, Cat#827-08364) diluted 1:2000 for 1 hour at room temperature. […]"}},
  "data": [
    {"substance": "GF-Fus6: IGF-1(LR3) fused to CNA344 CB domain", "values": [
      {"measurement": "binding to collagen type II", "setting": "collagen type II", "result": "binding more strongly"}
    ]},
    {"substance": "GF-Fus5: IGF-1(LR3) fused to CNA35 CB domain", "values": [
      {"measurement": "binding to collagen type II", "setting": "collagen type II", "result": "bound to collagen type II"}
    ]},
    {"substance": "GF-Fus3: C-terminal fusion IGF-1(LR3)-PRELP heparin binding domain", "values": [
      {"measurement": "binding to chondroitin sulfate", "setting": "[1]", "result": "bound"},
      {"measurement": "binding to heparan sulfate", "setting": "[2]", "result": "bound"},
      {"measurement": "cartilage matrix synthesis compared to GF-Fus3-His", "setting": "[3]", "result": "equivalent"},
      {"measurement": "protein degradation band at less than 7.5 kDa", "setting": "[4]; 45 ng loaded, after incubation in synovial fluid at 37° C.", "result": "≤ 1", "unit": "ng"},
      {"measurement": "protein degradation in synovial fluid", "setting": "[4]; 96 hours of 37° C. incubation, donors with grade 1 and grade 3 cartilage degeneration", "result": "minimal protein degradation"}
    ]}
  ]
}
